Assay results reported in US20200308591A1, “PROMOTER REGION ANALYSIS METHODS AND CELLS FOR PRACTICING SAME” (Eurofins DiscoverX Corporation, priority 2019, published 2020).

T1: RANK (Receptor activator of nuclear factor κ B receptor) (Homo sapiens, UniProt Q9Y6Q6)
T1 construct: expressed in transfected cells; host or cells: U2OS
T1 sequence (Q9Y6Q6 30-616): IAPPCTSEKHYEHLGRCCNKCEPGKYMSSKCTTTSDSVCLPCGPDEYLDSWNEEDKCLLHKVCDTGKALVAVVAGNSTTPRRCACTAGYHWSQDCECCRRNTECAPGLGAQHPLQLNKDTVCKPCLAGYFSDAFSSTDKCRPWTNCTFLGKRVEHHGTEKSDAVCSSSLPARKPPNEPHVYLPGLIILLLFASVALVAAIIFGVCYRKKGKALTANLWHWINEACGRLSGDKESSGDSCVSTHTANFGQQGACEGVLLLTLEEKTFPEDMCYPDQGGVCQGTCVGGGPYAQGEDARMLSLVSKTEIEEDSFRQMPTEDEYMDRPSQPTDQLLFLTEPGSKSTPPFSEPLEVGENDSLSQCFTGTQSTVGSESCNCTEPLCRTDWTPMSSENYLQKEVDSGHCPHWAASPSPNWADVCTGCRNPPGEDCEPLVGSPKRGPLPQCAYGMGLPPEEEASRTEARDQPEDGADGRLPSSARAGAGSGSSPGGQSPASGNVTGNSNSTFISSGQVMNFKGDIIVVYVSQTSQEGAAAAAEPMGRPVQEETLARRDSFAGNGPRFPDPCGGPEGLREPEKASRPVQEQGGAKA

T2: RANK (Receptor activator of nuclear factor κ B receptor) co-expressed in U2OS NFκB pathway reporter cells (UniProt Q9Y6Q6)
T2 sequence (looked up): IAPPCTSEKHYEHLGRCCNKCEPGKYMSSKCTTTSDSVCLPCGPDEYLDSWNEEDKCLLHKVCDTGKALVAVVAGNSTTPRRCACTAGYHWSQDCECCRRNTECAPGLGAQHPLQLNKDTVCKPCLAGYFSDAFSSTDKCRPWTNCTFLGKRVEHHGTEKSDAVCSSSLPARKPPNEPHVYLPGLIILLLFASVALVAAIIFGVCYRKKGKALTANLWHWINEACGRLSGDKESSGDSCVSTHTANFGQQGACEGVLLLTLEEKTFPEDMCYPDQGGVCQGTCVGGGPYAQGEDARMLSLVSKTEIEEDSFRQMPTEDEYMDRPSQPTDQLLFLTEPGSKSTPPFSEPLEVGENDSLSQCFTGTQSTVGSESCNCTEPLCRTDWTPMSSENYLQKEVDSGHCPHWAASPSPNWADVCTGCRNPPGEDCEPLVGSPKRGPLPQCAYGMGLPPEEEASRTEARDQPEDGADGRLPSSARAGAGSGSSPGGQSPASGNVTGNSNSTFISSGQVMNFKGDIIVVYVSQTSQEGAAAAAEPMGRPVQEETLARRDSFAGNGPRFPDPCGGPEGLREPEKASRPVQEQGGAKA


Key:
[1] = system: NFκB (nuclear factor NF-kappa-B p100 subunit) pathway; experiment: U2OS NFκB pathway reporter cell line (Example 7); format: cell-based; details: 5000 cells/well; 360 min at 37 °C
Source text: (§1) A reporter cell line was engineered to express an Enzyme Donor (ED) tagged carrier protein controlled by a pathway-inducible transcriptional response element. Pathway activation results in induced expressions of the ED-tagged protein. Addition of exogenous Enzyme Acceptor (EA), and buffer, lyses the cell and forces complementation of the ED and EA enzyme fragments.
In this example, the cell line is an NFκB (nuclear factor NF-kappa-B p100 subunit) pathway reporter cell line. The cells are U2OS cells that include a nucleic acid encoding a β-galactosidase donor fragment (ED) having the amino acid sequence […] (SEQ ID NO:30) operably coupled to a promoter region comprising an NFκB response element.
(§2) Cells were plated in a 96-well plate and incubated at 37° C. and 5% CO2 to allow the cells to attach and grow. Cells were then stimulated with a control agonist (here, CD40L), using the assay conditions described below. Following stimulation, signal was detected using the PathHunter® ProLabel®/ProLink™ Detection Kit (Eurofins DiscoverX Corporation) according to the recommended protocol.

CD40 receptor [2] = molecular target: T3, CD40 receptor (Homo sapiens, UniProt P25942); experiment: NFkB EFC reporter assay cells, CD40L stimulation (FIG. 7); format: cell-based; details: 3h or 6h incubation
T3 construct: The cells also endogenously express CD40 (receptor); endogenous in cells; host or cells: U2OS
Source text: Often multiple ligands acting through different cellular receptors will stimulate the same signaling pathway allowing the same EFC reporter assay to be used to study the function and inhibition of function for these multiple ligands. For example, in FIGS. 4-6 stimulation and inhibition of TNFα-stimulated NFkB signaling and gene expression was studied.

CD40 receptor [3] = molecular target: T3, CD40 receptor; experiment: U2OS NF-κB pathway reporter assay with carrier protein (Example 12); format: cell-based; details: 5000 cells/well; 6 h at 37 °C
Source text: as §1, with “a carrier protein-Enzyme” for “an Enzyme”, “carrier protein-ED-tagged” for “ED-tagged”
In this example, the cell line is a NFκB (nuclear factor NF-kappa-B p100 subunit) pathway reporter cell line. The cells are U2OS cells that include a nucleic acid encoding a reporter fragment and β-galactosidase donor fragment (ED) having the amino acid sequence […] (SEQ ID NO:30) operably coupled to a promoter region comprising a NFκB response element. The cells also endogenously express CD40 (receptor).
as §2

CD40 receptor [4] = molecular target: T3, CD40 receptor; experiment: EFC-based versus Luciferase NFκB transcriptional reporter assay, CD40L; format: cell-based; details: 6h stimulation
Experimental: FIG. 13. […] U2OS cells stably transfected with a plasmid encoding an NFκB transcriptional response element driving expression of either the EFC reporter (left panel) or (Firefly) Luciferase-PEST were stimulated with a range of concentrations of CD40L for 6h followed by cell lysis, addition of excess EA, incubation for 1h and determination of luminescence (RLU). The luminescence detected indicates the extent of induction of the respective carrier protein by CD40L.
The EFC-based NFκB transcriptional reporter assay was over 35 times more sensitive to CD40L than the luciferase-based assay. Note that the reporter plasmids used to make the stable cell lines had identical elements with the only significant difference being the identity of the carrier protein. Specifically, both plasmids had the same promoter elements and both had the same protein destabilizing element (PEST sequence).

[5] = molecular target: T1, RANK (Receptor activator of nuclear factor κ B receptor); experiment: U2OS RANK-NFκB pathway reporter assay (Example 13); format: cell-based; details: 5000 cells/well; 16 h at 37 °C
Source text: as §1, with “a carrier protein-Enzyme” for “an Enzyme”, “carrier protein-ED-tagged” for “ED-tagged”
In this example, the cell line is a NFκB (Nuclear factor NF-kappa-B p100 subunit) pathway reporter cell line. The cells are U2OS cells that include a nucleic acid encoding a reporter fragment and β-galactosidase donor fragment (ED) having the amino acid sequence […] (SEQ ID NO:30) operably coupled to a promoter region comprising a NFκB response element. To produce the RANK-NFκB reporter assay RANK (Receptor activator of nuclear factor κ B receptor) is co-expressed in the above-developed U2OS NFκB Pathway Reporter cells.
as §2, with “sRANKL),” for “CD40L),”

[6] = molecular target: T2, RANK (Receptor activator of nuclear factor κ B receptor) co-expressed in U2OS NFκB pathway reporter cells; experiment: cell-based or functional assay
RANK = experiment: Comparison of U2OS NF-κB and U2OS RANK-NF-κB reporter cell lines (Example 16); format: cell-based; details: FIG. 24b versus FIG. 24a
Source text: as §1, with “Two reporter” for “A reporter”, “cell lines were” for “cell line was”, “express a carrier protein-Enzyme” for “express an Enzyme”, “the carrier protein-ED-tagged” for “the ED-tagged”
In this example, a first cell line is a U2OS-NF-κB pathway reporter cell line and the second cell line is U2OS RANK-NF-κB cell line. The cells are U2OS for both the cell lines as prepared in this example 16. The U2OS-NF-κB cell line includes a nucleic acid encoding a reporter fragment and β-galactosidase donor fragment (ED) having the amino acid sequence […] (SEQ ID NO:30) operably coupled to a promoter region comprising a NFκB response element. The U2OS RANK-NF-κB cell line includes a nucleic acid encoding a reporter fragment and β-galactosidase donor fragment (ED) having the amino acid sequence […] (SEQ ID NO:30) operably coupled to a promoter region comprising a NFκB response element followed by co-expression of RANK-CD27 (receptor) in the above-developed U2OS NF-κB pathway reporter cell line.
Assay results for U2OS NF-κB cell line with CD40L ligand is shown in FIG. 24a and assay results for U2OS RANK NF-κB cell line with sRANK ligand is shown in FIG. 24b.

T3 sequence (P25942 21-277): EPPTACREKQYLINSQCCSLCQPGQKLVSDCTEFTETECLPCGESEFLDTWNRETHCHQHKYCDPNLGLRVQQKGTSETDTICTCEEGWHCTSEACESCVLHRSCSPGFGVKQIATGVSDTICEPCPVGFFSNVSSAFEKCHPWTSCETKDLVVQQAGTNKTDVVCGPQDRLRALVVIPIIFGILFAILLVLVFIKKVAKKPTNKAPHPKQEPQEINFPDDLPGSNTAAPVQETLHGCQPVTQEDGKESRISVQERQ

Molecule	EC50 for control agonist stimulation [1]	signal:background ratio at agonist EMAX [1]	response of endogenous CD40 receptor to ligand (CD40 receptor [2])	EC50 for control agonist stimulation (CD40 receptor [3])	signal:background ratio (CD40 receptor [3])	sensitivity of EFC-based assay relative to luciferase-based assay (CD40 receptor [4])	EC50 for control agonist stimulation [5]	signal:background ratio [5]	EC50 for control agonist stimulation, U2OS RANK-NFκB pathway reporter cell line [6]	signal:background ratio, U2OS RANK-NFκB pathway reporter cell line [6]	EC50 compared with U2OS NF-κB cell line with CD40L (RANK)	signal:background ratio compared with U2OS NF-κB cell line with CD40L (RANK)
CD40L: CD40 ligand, control agonist acting through the CD40 receptor	225.4 ng/mL	26.3	responded robustly	88.6 ng/mL	102.8	over 35 times	–	–	–	–	–	–
soluble RANKL (ligand, UniProt O14788 143-317, looked up) EKAMVDGSWLDLAKRSKLEAQPFAHLTINATDIPSGSHKVSLSSWYHDRGWAKISNMTFSNGKLIVNQDGFYYLYANICFRHHETSGDLATEYLQLMVYVTKTSIKIPSSHTLMKGGSTKYWSGNSEFHFYSINVGGFFKLRSGEEISIEVSNPSLLDPDQDATYFGAFKVRDID	–	–	–	–	–	–	4.034 ng/mL	24.0	4.03 ng/mL	24	lower EC50	larger signal:background ratio
